Biological target: ABD1 of PLS2 (human) (UniProt P13796)
Experiment: fluorescence polarisation

Chain of ABD1 of PLS2 (human) (P13796 98-375): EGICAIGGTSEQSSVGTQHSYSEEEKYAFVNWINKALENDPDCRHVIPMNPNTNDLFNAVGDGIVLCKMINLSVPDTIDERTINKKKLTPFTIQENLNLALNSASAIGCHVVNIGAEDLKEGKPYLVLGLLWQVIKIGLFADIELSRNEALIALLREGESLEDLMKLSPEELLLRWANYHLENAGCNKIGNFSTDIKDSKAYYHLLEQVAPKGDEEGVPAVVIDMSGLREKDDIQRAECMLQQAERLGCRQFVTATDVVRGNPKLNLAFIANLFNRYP

ABD2 of PLS2 with S406E (from UniProt P13796 1-627) (domain or fragment)
Kd: 2000 nM

— publication doi:10.1101/2021.12.01.470822
